Assays:
[1] = substrate: CC1(C)CNc2nc(N)[nH]c(=O)c2N1; experiment: Phenylalanine hydroxylase cofactor assay (cofactor consumption and tyrosine formation); format: biochemical, Rat; conditions: other: 1 mM phenylalanine, atmospheric oxygen, 0.1 M Tris·HCl, pH 7.4, 27°C
Description: (§1) The 6,6-dimethyl substituted tetrahydropterin was tested for cofactor activity in a standard phenylalanine hydroxylase assay in which both cofactor consumption and tyrosine formation were monitored. […] An apparent Michaelis constant was determined at 1 mM phenylalanine and atmospheric oxygen with concentrations of 6,6-Me₂PH₄ ranging from 0.02-0.3 mM. The effect of a second methyl at the 6-position slightly increases the affinity for phenylalanine hydroxylase, since the apparent Km was two-thirds to three-quarters that of 6-methyl and 6,7-dimethyltetrahydropterin (Table IV). […] The maximum velocity of the reaction with 6,6-Me₂PH₄ is similar to that with the 6,7-dimethyl compound and about 6 times slower than with the natural cofactor (Table IV).

[2] = substrate: CC1CNc2nc(N)[nH]c(=O)c2N1; experiment: as above; format: biochemical, Rat; conditions: other: 1 mM phenylalanine, atmospheric oxygen, 0.1 M Tris·HCl, pH 7.4, 27°C
Description: as §1

[3] = substrate: CC1(C)CNC2=NC(N)=NC(=O)C2=N1; experiment: Quinoid dihydropterin as substrate for dihydropteridine reductase (sheep liver); format: biochemical
Description: The quinoid was generated from 6,6-Me₂PH₄, as outlined previously. […] Peroxidase (6 units/ml final volume) was temperature equilibrated in 0.1 M Tris·HCl, pH 7.4, at 27° for 5 minutes. H₂O₂ (1.2 mM final concentration) was then added, followed by 6,6-Me₂PH₄. Conversion to q-6,6-Me₂PH₂, monitored at 340 nm, was complete within a few seconds. • (iii) Generation by phenylalanine hydroxylase: […] At 5 minutes, 6,6-Me₂PH₄ was introduced and monitored at 340 nm. Conversion of 6,6-Me₂PH₄ to quinoid dihydropterin was complete in 1-7 minutes, depending on the concentration. […] Reaction was then initiated with dihydropteridine reductase (0.01 units/ml). Rates were calculated from the enzyme dependent decrease in O.D. at 340 nm, using an extinction coefficient of 9.8 for the chemically synthesized substrate and 6.2 for the peroxidase- and phenylalanine-hydroxylase-containing reactions in which the pterin is maintained in the quinoid form. […] This Km was obtained regardless of the method of generation of the quinoid dihydropterin. The Vmax's were also the same for the dihydropteridine reductase catalyzed reduction of quinoid generated by any of the three methods (Table VI). Thus, the quinoid products of each procedure appear to behave equally.

[4] = substrate: CC1(c2ccccc2)CNC2=NC(N)=NC(=O)C2=N1; experiment: Quinoid dihydropterin as substrate for dihydropteridine reductase (beef liver); format: biochemical; conditions: other: substrate produced by Peroxidase + H2O2; pH 7.4; 27.0 °C
[5] = substrate: CC1(C)CNC2=NC(N)=NC(=O)C2=N1; experiment: as above; format: biochemical
Description: Substrate Properties of Quinoid-6,6-dimethyldihydropterin for Dihydropteridine Reductase: 6,6-Dimethyltetrahydropterin was oxidized by three different procedures to produce q-6,6-Me₂PH₂ to be tested as a substrate for dihydropteridine reductase. • (i) Chemical synthesis. […] The q-6,6-Me₂PH₂ was dissolved in 0.1 M Tris·HCl, pH 7.4 immediately before use to make a 10 mM stock solution, which was kept on ice. To test for substrate activity a small volume (<50 µl) was added to a cuvette containing 0.1 M Tris·HCl, pH 7.4, which had been temperature equilibrated to 27°, and the absorbance at 340 nm was measured. • (ii) Oxidation by peroxidase and H₂O₂. Peroxidase (6 units/ml final volume) was temperature equilibrated in 0.1 M Tris·HCl, pH 7.4, at 27° for 5 minutes. H₂O₂ (1.2 mM final concentration) was then added, followed by 6,6-Me₂PH₄. Conversion to q-6,6-Me₂PH₂, monitored at 340 nm, was complete within a few seconds. • (iii) Generation by phenylalanine hydroxylase: Phenylalanine hydroxylase (0.6 units/ml), catalase (2500 units/ml), and phenylalanine (3 mM final concentration) were temperature equilibrated at 27° in 0.1 M Tris·HCl, pH 7.4. At 5 minutes, 6,6-Me₂PH₄ was introduced and monitored at 340 nm. Conversion of 6,6-Me₂PH₄ to quinoid dihydropterin was complete in 1-7 minutes, depending on the concentration. To each of the above solutions containing q-6,6-Me₂PH₂, NADH (final concentration 0.1 mM) as added, and the background rate recorded for 1 minute. Reaction was then initiated with dihydropteridine reductase (0.01 units/ml). Rates were calculated from the enzyme dependent decrease in O.D. at 340 nm, using an extinction coefficient of 9.8 for the chemically synthesized substrate and 6.2 for the peroxidase- and phenylalanine-hydroxylase-containing reactions in which the pterin is maintained in the quinoid form. Due to the high concentrations of q-6,6-Me₂PH₂ required to obtain an accurate Km, cuvettes of 0.5 cm light path were used.

[6] = substrate: CC1=Nc2c(O)nc(N)nc2NC1; experiment: as above; format: biochemical; conditions: other: substrate produced by Peroxidase + H2O2; pH 7.4; 27.0 °C
[7] = other: substrate produced by Bromine oxidation, 0.1 M Tris·HCl, pH 7.4, 27°C
[8] = other: substrate produced by Phe hydroxylase + phe, pH 7.4, 27.0 °C

B1: Rat Liver Phenylalanine Hydroxylase (Rattus norvegicus) (protein)
chain: MAAVVLENGVLSRKLSDFGQETSYIEDNSNQNGAISLIFSLKEEVGALAKVLRLFEENDINLTHIESRPSRLNKDEYEFFTYLDKRTKPVLGSIIKSLRNDIGATVHELSRDKEKNTVPWFPRTIQELDRFANQILSYGAELDADHPGFKDPVYRARRKQFADIAYNYRHGQPIPRVEYTEEEKQTWGTVFRTLKALYKTHACYEHNHIFPLLEKYCGFREDNIPQLEDVSQFLQTCTGFRLRPVAGLLSSRDFLGGLAFRVFHCTQYIRHGSKPMYTPEPDICHELLGHVPLFSDRSFAQFSQEIGLASLGAPDEYIEKLATIYWFTVEFGLCKEGDSIKAYGAGLLSSFGELQYCLSDKPKLLPLELEKTACQEYSVTEFQPLYYVAESFSDAKEKVRTFAATIPRPFSVRYDPYTQRVEVLDNTQQLKILADSINSEVGILCNALQKIKS
notes: Cofactor for Rat Liver Phenylalanine Hydroxylase; from tissue; host or cells: rat liver
- Km [1]: 66 ± 10 µM
- Km [2]: 100 ± 20 µM

B2: Sheep Liver Dihydropteridine Reductase (Ovis aries) (protein)
chain: WVASIDVQENEEASANVVVKMTDSFTEQADQVTAEVGELLGTEKVDAILCVAGGWAGGNAKSKSLFKNCDLMWKQSVWTSTISSHLATKHLKEGGLLTLAGARAALDGTPGMIGYGMAKAAVHQLCRSLAGKNSGLPPGAAAVALLPVTLDTPVNRKSMPEADFSSWTPLEFLVETFHDWITEKNRPSSGSLIQVVTTEGKTELTTASL
- Km [3, 7]: 400 µM
- Km [3, 8]: 400 µM

B3: Beef Liver Dihydropteridine Reductase (Bos taurus) (protein)
chain: MAAAAGEARRVLVYGGRGALGSRCVQAFRARNWWVASIDVQENEEASANVVVKMTDSFTEQADQVTAEVGKLLGTEKVDAILCVAGGWAGGNAKSKSLFKNCDLMWKQSVWTSTISSHLATKHLKEGGLLTLAGARAALDGTPGMIGYGMAKAAVHQLCQSLAGKSSGLPPGAAAVALLPVTLDTPVNRKSMPEADFSSWTPLEFLVETFHDWITEKNRPSSGSLIQVVTTEGKTELTAASP
notes: from tissue; host or cells: beef liver
- Km [4]: 70 µM
- Km [5, 7]: 400 µM
- Km ([5]; other: substrate produced by Peroxidase + H2O2, pH 7.4, 27.0 °C): 400 µM
- Km [5, 8]: 400 µM
- Km [6]: 30 µM

From patent publication EP0138995B1, “REGULATION OF ENZYMES WHICH UTILIZE TETRAHYDROBIOPTERIN OR TETRAHYDROFOLATE COFACTORS WITH 6, 6-DISUBSTITUTED-TETRAHYDROPTERIDINES” (South Alabama Medical Science Foundation, priority 1983, dated 1984)
